pKd: −log10 of the molar value.
Columns and labels:
Purified Arp2/3 complex [1] = test: fluorescence anisotropy, competition with labelled ArpinA bound to purified Arp2/3 complex
Purified Arp2/3 complex [2] = test: fluorescence anisotropy; labelled ArpinA peptide bound to purified Arp2/3 titrated with purified Arpin FL

IC50 (read off the curve) (Purified Arp2/3 complex [1]): 300 nM
pKd (Purified Arp2/3 complex [1]): 6.69
pKd (Purified Arp2/3 complex [2]): 6.70
Substance: Human full length Arpin (residues 1-226), purified from E. coli, cleaved off GST by TEV protease (from UniProt Q7Z6K5 1-226)
